The source of these data is patent publication US20190060239A1, “Technology for the Preparation of Microparticles” (Ansun Biopharma, Inc., priority 2007, published 2019).

Series [1] in a line: Sialidase activity with fluorogenic substrate 4-MU-NANA. It is filed as biochemical. Here is the method:
The sialidase activity of DAS181 was measured using the fluorogenic substrate 4-methylumbelliferyl-N-acetyl-α-D-neuraminic acid (4-MU-NANA; Sigma). One unit of sialidase is defined as the amount of enzyme that releases 10 nmol of MU from 4-MU-NANA in 10 minutes at 37° C. (50 mM CH3COOH—NaOH buffer, pH 5.5) in a reaction that contains 20 nmol of 4-MU-NANA in a 0.2 ml volume (Potier et al., Anal. Biochem., 94:287-296, 1979). The specific activity of DAS181 was determined to be 1,300 U/mg protein (0.77 μg DAS181 protein per unit of activity).

Series [2] in a line: Microsphere formation, size and appearance by light microscopy. It is filed as physicochemical.

B1: DAS181: fusion protein: heparin (GAG) binding domain of human amphiregulin fused to a catalytic domain of Actinomyces Viscosus sialidase (SEQ ID NO:17) (protein)
chain: MGDHPQATPAPAPDASTELPASMSQAQHLAANTATDNYRIPAITTAPNGDLLISYDERPKDNGNGGSDAPNPNHIVQRRSTDGGKTWSAPTYIHQGTETGKKVGYSDPSYVVDHQTGTIFNFHVKSYDQGWGGSRGGTDPENRGIIQAEVSTSTDNGWTWTHRTITADITKDKPWTARFAASGQGIQIQHGPHAGRLVQQYTIRTAGGAVQAVSVYSDDHGKTWQAGTPIGTGMDENKVVELSDGSLMLNSRASDGSGFRKVAHSTDGGQTWSEPVSDKNLPDSVDNAQIIRAFPNAAPDDPRAKVLLLSHSPNPRPWSRDRGTISMSCDDGASWTTSKVFHEPFVGYTTIAVQSDGSIGLLSEDAHNGADYGGIWYRNFTMNWLGEQCGQKPAKRKKKGGKNGKNRRNRKKKNP
modifications: DAS181
With B1, the “specific activity of DAS181” value in series [1] (4-MU-NANA, 37°C, pH 5.5, one unit releases 10 nmol MU in 10 minutes) is on record as 1,300 U/mg protein. For the same molecule, in series [1] (same assay), the “DAS181 protein per unit of activity” value stood at 0.77 µg. For the same molecule, the size of microspheres entry in series [2] (5 mg/ml or 10 mg/ml DAS181, 5 mM sodium citrate, 5% isopropanol) is listed as “about 1.5 micron”. Further, the “appearance of dry pellet” value was “a mixture of glass-like crystals and agglomerates with only a few microspheres” in series [2] (cocktail 2): 10 mg/ml DAS181, 5 mM glycine pH 5.0, 10% isopropanol, gradual cooling); “glass-like crystals and no microspheres” in series [2] (cocktail 4) (5 mM sodium citrate, 10% isopropanol) snap-frozen in liquid nitrogen in a glass tube); “agglomerated microspheres” in series [2] (cocktail 4) (5 mM sodium citrate, 10% isopropanol) snap-frozen in liquid nitrogen in a plastic tube); “no microspheres were observed” in series [2] (cocktails 1) and 3): 10 mg/ml DAS181, 5 mM glycine or 5 mM sodium citrate pH 5.0, no organic solvent). The “appearance of microspheres (microscopy and cascade impaction)” value in series [2] (continuous mode: 10 mg/ml DAS181, 20% isopropanol, 2 mM sodium sulfate, heat exchanger, cooled from about 25°C to about −12°C) was “uniform microspheres with minimal aggregation and good dispersivity”. For the same molecule, in series [2] (same cocktail not chilled, poured directly into liquid nitrogen), the appearance after lyophilization result is given as “no microspheres were observed”.
